Data as given in patent publication US20260116958A1 (University of California, published 2026).

Key:
[1] = target: T1, inactive BoNT/G (BoNT/Gi) (Clostridium botulinum, UniProt Q60393 1-1297); test: titration on yeast-displayed scFv, flow cytometry, fit y = m1 + m2*M0/(m0+m3)
T1 sequence: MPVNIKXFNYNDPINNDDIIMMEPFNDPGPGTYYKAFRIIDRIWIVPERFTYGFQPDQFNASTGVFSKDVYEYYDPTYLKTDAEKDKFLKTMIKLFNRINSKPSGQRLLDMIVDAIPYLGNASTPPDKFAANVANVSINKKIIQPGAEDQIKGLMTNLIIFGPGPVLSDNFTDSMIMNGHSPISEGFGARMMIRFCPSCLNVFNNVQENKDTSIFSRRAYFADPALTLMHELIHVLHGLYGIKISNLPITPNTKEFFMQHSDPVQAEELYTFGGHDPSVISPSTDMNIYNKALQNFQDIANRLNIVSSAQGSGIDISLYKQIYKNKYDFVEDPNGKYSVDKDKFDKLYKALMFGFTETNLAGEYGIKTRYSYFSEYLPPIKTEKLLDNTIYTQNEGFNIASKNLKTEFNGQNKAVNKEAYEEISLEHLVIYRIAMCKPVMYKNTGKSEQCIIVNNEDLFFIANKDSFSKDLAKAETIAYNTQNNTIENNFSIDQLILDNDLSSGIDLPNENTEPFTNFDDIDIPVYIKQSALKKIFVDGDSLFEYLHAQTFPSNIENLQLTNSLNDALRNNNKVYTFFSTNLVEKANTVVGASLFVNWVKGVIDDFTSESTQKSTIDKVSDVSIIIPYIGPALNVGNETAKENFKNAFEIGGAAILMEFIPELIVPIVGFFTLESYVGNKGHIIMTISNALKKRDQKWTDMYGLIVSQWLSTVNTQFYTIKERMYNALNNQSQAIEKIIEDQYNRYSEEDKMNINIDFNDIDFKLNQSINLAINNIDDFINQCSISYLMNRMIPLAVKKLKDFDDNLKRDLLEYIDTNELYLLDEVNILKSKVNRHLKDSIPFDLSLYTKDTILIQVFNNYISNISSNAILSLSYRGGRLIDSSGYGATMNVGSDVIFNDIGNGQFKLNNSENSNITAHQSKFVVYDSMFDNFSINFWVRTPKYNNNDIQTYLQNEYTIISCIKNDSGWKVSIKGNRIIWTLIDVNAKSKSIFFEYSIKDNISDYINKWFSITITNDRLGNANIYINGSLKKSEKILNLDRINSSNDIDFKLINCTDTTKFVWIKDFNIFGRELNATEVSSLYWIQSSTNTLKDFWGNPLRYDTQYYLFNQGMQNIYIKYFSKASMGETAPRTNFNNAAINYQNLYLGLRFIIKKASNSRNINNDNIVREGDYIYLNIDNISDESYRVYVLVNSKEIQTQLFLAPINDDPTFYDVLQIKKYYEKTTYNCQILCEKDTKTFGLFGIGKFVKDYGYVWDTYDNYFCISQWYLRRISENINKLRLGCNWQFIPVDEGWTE

[2] = target: T1, inactive BoNT/G (BoNT/Gi); test: FACS, scFv on yeast
[3] = target: T1, inactive BoNT/G (BoNT/Gi); test: scFv on yeast
[4] = target: inactive BoNT/G (BoNT/Gi) (Clostridium botulinum) (UniProt Q60393); test: flow cytometry, scFv on yeast; against hu6G6 Wt
[5] = target: inactive BoNT/G (BoNT/Gi) (Clostridium botulinum) (UniProt Q60393); test: scFv on yeast surface
[6] = target: inactive BoNT/G (BoNT/Gi) (Clostridium botulinum) (UniProt Q60393); test: flow cytometry, scFv on yeast
[7] = target: inactive BoNT/G (BoNT/Gi) (Clostridium botulinum) (UniProt Q60393); test: FACS, scFv on yeast
[8] = target: inactive BoNT/G (BoNT/Gi) (Clostridium botulinum) (UniProt Q60393); test: scFv on yeast
[9] = target: inactive BoNT/G (BoNT/Gi) (Clostridium botulinum) (UniProt Q60393); test: flow cytometry, scFv on yeast; remark: listed apart in the source
[10] = target: inactive BoNT/G (BoNT/Gi) (Clostridium botulinum) (UniProt Q60393); test: flow cytometry, scFv on yeast surface
[11] = target: T1, inactive BoNT/G (BoNT/Gi); test: titration on yeast-displayed scFv, flow cytometry, fit y = m1 + m2*M0/(m0+m3); remark: listed apart in the source

B1: 6G10 scFv (scFv, V domains shown)
VH: EVQLQQSGPELVKPGASVKISCKASGYSFTGYFMHWVKQSHVKSLEWIGRINPYNGDIIYNQNFKDKASLTVDKSSSTAYMELHSLTSEDSAVYYCASLFGLYYFDYWGQGTTLTVSS
VL: EIVLTQSPAIMSASPGEKVTMTCSASSSVSYMHWYQQKSGTSPKRWIYDTSKLASGVPARFSGSGSGTSYSLTISSMEAEDAATYYCQQWSSNPLTFGAGTKLELKR
B1 gave a Kd [1] of 2.48 nM and a Kd [2] of 2.48 nM.

B2: hu6G11 scFv (scFv, V domains shown)
VH: QVQLVQSGAEVAKPGASVKMSCKASGYTFTSYWMHWVRQAPGQGLEWIGYINPSTGYTEYNQKFKDRATLTADKSTSTAYMELSSLRSEDTAVYYCARGYFSFAYWGQGTLVTVSS
VL: DIVMTQSPSSLSASVRDRVTITCQASHDIKNFLNWFQQKPGKAPKLLVYDASNLQVGVPSRFSASGYGTEFTLTISSLQPEDFATYYCQQANSFPRTFGQGTKVEIKR
With B2 the Kd [3] was 4.57 nM, the “fold improvement in BoNT/Gi binding” value [3] was 25 fold and the Kd [2] was 4.5 nM.

B3: hu6G6.1 scFv (scFv)
scFv: QVQLVQSGAEVKKPGASVKLSCKASGFNIKDTYMHWVRQAPGQGLEWIGRIDPENGNTKYDPKFQGRATITAYKSINTAYLELSRLRSDDTAVYYCASGPNYYGTTWFAYWGQGTTVTVSSVDLKSGGSTSGSGKPGSGEGSSGSAREIVLTQSPSTLSASVGDRVTITCRASHGISNYLAWYQQKPGRAPKLLIYKASTLHIGVPSRFSGSGSGTEFALTISSLQPDDFSTYYCQQYNSYLPHTFGQGTRLEIK
B3 gave an Improvement over WT [4] of 5.5 fold, a Kd [5] of 1.15 nM and a Kd [6] of 4.27 nM. The Kd [7] was 3.4 nM.

B4: Hu6G6.2 scFv (scFv)
scFv: QVQLVQSGAEVKKPGASVKLSCKASGFNIKDTYMHWVRQAPGQGLEWIGRIDPENGNTKYDPKFQGRATITAYKSINRAYLELSRLRSDDTAVYYCASGPNYYGTTWFAYWGQGTTVTVSSVDLKSGGSTSGSGKPGSGEGSSGSAREIVLTQSPSTLSASVGDRVTITCRASHGISNYLAWYQQKPGRAPKLLIYKASTLHIGVPSRFSGSGSGTEFALTISSLQPDDFSTYYCQQYNSYLPHTFGQGTRLEIK
In the case of B4, the Kd [8] is reported as 0.22 nM and the Kd [7] is reported as 0.22 nM.

B5: hu6G9 scFv (scFv)
scFv: QVQLVQSGAEVKKPGASVKMSCKASGYTFTSYWMHWVRQAPGQGLEWIGYINPSTGYTEYNQKFKDRATLTADKSTSTAYMELRSLRSDDTAVYYCARGGNYVDYWGQGTTLTVSSVDLKSGGSTSGSGKPGSGEGSSGSARDIQMTQSPSTLSASVGERVTITCRASQGISSWLAWYQQKPGKAPKRLIYAVSTLQTGVPSRFSGSGSGTDLTLTINSLQPEDFATYYCQHLNSYPLTFGGGTKVEIK
With B5 the Kd [6] was 18.8 nM, the Kd [9] was 3.78 nM and the Kd [10] was 18.8 nM.

B6: 6G9 scFv (scFv, V domains shown)
VH: EVQLQQSGDDLVKPGASVKMSCKASGYTFTSYWMHWVKQRPGQGLEWIGYINPSTGYTEYNQKFKDKATLTADKSSSTAYMQLSSLTSEDSAVYYCARGGNYVDYWGQGTTLTVSS
VL: EIVLTQSPAIMSASPGEKVTISCSASSSVSYMYWYQQKPGSSPKPWIYRTSNLASGVPARFSGSGSGTSYSLTISSMEAEDAATYYCQQWSSNPYTFGGGTKLEIKR
For B6, the Kd [11] was 5.6 nM and the Kd [2] was 18.8 nM.
